Test [1] addresses X16 UFO (CRF07_BC Env), uncleaved prefusion-optimized Env trimer of isolate BJOX016000.e15 (HIV-1). The experiment in a line: cryo-EM structure.
In test [2] the target is X18 UFO (CRF01_AE Env), uncleaved prefusion-optimized Env trimer of isolate BJOX018000.e12 (HIV-1). Put plainly: negative stain EM.
Test [3] shares this target. Put plainly: cryo-EM structure.

Results on 2 substances are retold here after PMC10403546.

As to “X16 UFO (CRF07_BC Env), uncleaved prefusion-optimized Env trimer of isolate BJOX016000.e15 (natural protein)”, the stoichiometry N in test [1] stood at 3.

In the case of “X18 UFO (CRF01_AE Env), uncleaved prefusion-optimized Env trimer of isolate BJOX018000.e12 (natural protein)”, in test [2], the percentage of intact Env trimers, 8ANC195-bound, over 18 h worked out at 90%; the percentage of intact Env trimers, F6-bound, 1 h came out at 83%; the percentage of intact Env trimers, F6-bound, 7 h came out at 48%. In test [3], the stoichiometry N was 3.
